In patent US20180009908:

T1: HA-tagged human IgG1 Fc portion with CH3 mutations Y349S, K370Y, T366V, K409V
T1 chain: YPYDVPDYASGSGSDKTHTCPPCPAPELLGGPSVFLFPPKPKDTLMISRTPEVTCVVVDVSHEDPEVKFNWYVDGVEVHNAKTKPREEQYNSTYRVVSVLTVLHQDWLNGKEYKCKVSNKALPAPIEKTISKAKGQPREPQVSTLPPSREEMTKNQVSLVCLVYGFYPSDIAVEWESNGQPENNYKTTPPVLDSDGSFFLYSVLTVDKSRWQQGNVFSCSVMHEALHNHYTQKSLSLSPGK

T2: HA-tagged human IgG1 Fc portion with CH3 mutations Y349S, K370Y, T366M, K409V
T2 chain: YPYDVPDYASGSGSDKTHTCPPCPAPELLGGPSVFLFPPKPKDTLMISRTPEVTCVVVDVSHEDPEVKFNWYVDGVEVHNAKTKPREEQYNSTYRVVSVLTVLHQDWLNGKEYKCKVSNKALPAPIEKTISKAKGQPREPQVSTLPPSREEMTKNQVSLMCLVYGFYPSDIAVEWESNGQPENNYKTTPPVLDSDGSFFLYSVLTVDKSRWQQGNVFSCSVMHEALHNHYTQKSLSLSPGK


Assays:
[1] = biological target: T1, HA-tagged human IgG1 Fc portion with …; test: UPLC SEC of protein G-purified one-arm antibody co-expressed in HEK293F
[2] = biological target: T2, HA-tagged human IgG1 Fc portion with …; test: as above
[3] = biological target: matuzumab HC_20.8_B + matuzumab LC (IgG1); test: LCMS, IgG1 BsAb co-expression; HCA/HCB heterodimer carrying two LC2
[4] = biological target: matuzumab HC_20.8.34_B + matuzumab LC (IgG1); test: as above
[5] = biological target: matuzumab HC_20.8.37_B + matuzumab LC (IgG1); test: as above
[6] = biological target: matuzumab HC_20.8_B + matuzumab LC (IgG1); test: LCMS, IgG1 BsAb co-expression in HEK293F
[7] = biological target: matuzumab HC_20.8.34_B + matuzumab LC (IgG1); test: LCMS, IgG1 BsAb co-expression in HEK293F
[8] = biological target: matuzumab HC_20.8.37_B + matuzumab LC (IgG1); test: LCMS, IgG1 BsAb co-expression in HEK293F
[9] = biological target: matuzumab HC_20.8_B + matuzumab LC (IgG1); test: LCMS, IgG1 BsAb co-expression; HCA/HCB heterodimer carrying two LC1
[10] = biological target: matuzumab HC_20.8.34_B + matuzumab LC (IgG1); test: as above
[11] = biological target: matuzumab HC_20.8.37_B + matuzumab LC (IgG1); test: as above
[12] = LCMS, IgG1 BsAb co-expression; HCA homodimer species
[13] = biological target: matuzumab HC_7.8.60_B + matuzumab LC (IgG4 HC backbone); test: LCMS, IgG4 BsAb co-expression in HEK293F
[14] = biological target: matuzumab HC_7.8.60_B + matuzumab LC (IgG4 HC backbone); test: LCMS, IgG4 BsAb co-expression; HCA/HCB heterodimer carrying two LC1
[15] = biological target: matuzumab HC_7.8.60_B + matuzumab LC (IgG4 HC backbone); test: LCMS, IgG4 BsAb co-expression; HCA/HCB heterodimer carrying two LC2
[16] = LCMS, IgG4 BsAb co-expression; HCA homodimer species

Row | Protein | % heterodimer (UPLC) [1] | % heterodimer (UPLC) [2] | % AB (2x LC2) (incorrect assembly) [3] | % AB (LC1/LC2) (correct IgG BsAb assembly) [6] | % AB (2x LC1) (incorrect assembly) [9] | also measured
1 | anti-c-Met 5D5 VH-human IgG1 HC with CH3 mutations E357D, S364Q, Y407A, with 5D5 light chain (protein) chain 1: EVQLVESGGGLVQPGGSLRLSCAASGYTFTSYWLHWVRQAPGKGLEWVGMIDPSNSDTRFNPNFKDRFTISADTSKNTAYLQMNSLRAEDTAVYYCATYRSYVTPLDYWGQGTLVTVSSASTKGPSVFPLAPSSKSTSGGTAALGCLVKDYFPEPVTVSWNSGALTSGVHTFPAVLQSSGLYSLSSVVTVPSSSLGTQTYICNVNHKPSNTKVDKRVEPKSCDKTHTCPPCPAPELLGGPSVFLFPPKPKDTLMISRTPEVTCVVVDVSHEDPEVKFNWYVDGVEVHNAKTKPREEQYNSTYRVVSVLTVLHQDWLNGKEYKCKVSNKALPAPIEKTISKAKGQPREPQVYTLPPSREDMTKNQVQLTCLVKGFYPSDIAVEWESNGQPENNYKTTPPVLDSDGSFFLASKLTVDKSRWQQGNVFSCSVMHEALHNHYTQKSLSLSPGK chain 2: DIQMTQSPSSLSASVGDRVTITCKSSQSLLYTSSQKNYLAWYQQKPGKAPKLLIYWASTRESGVPSRFSGSGSGTDFTLTISSLQPEDFATYYCQQYYAYPWTFGQGTKVEIKRTVAAPSVFIFPPSDEQLKSGTASVVCLLNNFYPREAKVQWKVDNALQSGNSQESVTEQDSKDSTYSLSSTLTLSKADYEKHKVYACEVTHQGLSSPVTKSFNRGEC | 92.5% | 93% |  |  |  | 
2 | anti-c-Met 5D5 VH-human IgG1 HC with CH3 mutations E357D, S364R, Y407A, with 5D5 light chain (protein) chain 1: EVQLVESGGGLVQPGGSLRLSCAASGYTFTSYWLHWVRQAPGKGLEWVGMIDPSNSDTRFNPNFKDRFTISADTSKNTAYLQMNSLRAEDTAVYYCATYRSYVTPLDYWGQGTLVTVSSASTKGPSVFPLAPSSKSTSGGTAALGCLVKDYFPEPVTVSWNSGALTSGVHTFPAVLQSSGLYSLSSVVTVPSSSLGTQTYICNVNHKPSNTKVDKRVEPKSCDKTHTCPPCPAPELLGGPSVFLFPPKPKDTLMISRTPEVTCVVVDVSHEDPEVKFNWYVDGVEVHNAKTKPREEQYNSTYRVVSVLTVLHQDWLNGKEYKCKVSNKALPAPIEKTISKAKGQPREPQVYTLPPSREDMTKNQVRLTCLVKGFYPSDIAVEWESNGQPENNYKTTPPVLDSDGSFFLASKLTVDKSRWQQGNVFSCSVMHEALHNHYTQKSLSLSPGK chain 2: DIQMTQSPSSLSASVGDRVTITCKSSQSLLYTSSQKNYLAWYQQKPGKAPKLLIYWASTRESGVPSRFSGSGSGTDFTLTISSLQPEDFATYYCQQYYAYPWTFGQGTKVEIKRTVAAPSVFIFPPSDEQLKSGTASVVCLLNNFYPREAKVQWKVDNALQSGNSQESVTEQDSKDSTYSLSSTLTLSKADYEKHKVYACEVTHQGLSSPVTKSFNRGEC | 85% | 85% |  |  |  | 
3 | anti-c-Met 5D5 VH-human IgG1 HC with CH3 mutations E356G, E357D, S364Q, Y407A, with 5D5 light chain (protein) chain 1: EVQLVESGGGLVQPGGSLRLSCAASGYTFTSYWLHWVRQAPGKGLEWVGMIDPSNSDTRFNPNFKDRFTISADTSKNTAYLQMNSLRAEDTAVYYCATYRSYVTPLDYWGQGTLVTVSSASTKGPSVFPLAPSSKSTSGGTAALGCLVKDYFPEPVTVSWNSGALTSGVHTFPAVLQSSGLYSLSSVVTVPSSSLGTQTYICNVNHKPSNTKVDKRVEPKSCDKTHTCPPCPAPELLGGPSVFLFPPKPKDTLMISRTPEVTCVVVDVSHEDPEVKFNWYVDGVEVHNAKTKPREEQYNSTYRVVSVLTVLHQDWLNGKEYKCKVSNKALPAPIEKTISKAKGQPREPQVYTLPPSRGDMTKNQVQLTCLVKGFYPSDIAVEWESNGQPENNYKTTPPVLDSDGSFFLASKLTVDKSRWQQGNVFSCSVMHEALHNHYTQKSLSLSPGK chain 2: DIQMTQSPSSLSASVGDRVTITCKSSQSLLYTSSQKNYLAWYQQKPGKAPKLLIYWASTRESGVPSRFSGSGSGTDFTLTISSLQPEDFATYYCQQYYAYPWTFGQGTKVEIKRTVAAPSVFIFPPSDEQLKSGTASVVCLLNNFYPREAKVQWKVDNALQSGNSQESVTEQDSKDSTYSLSSTLTLSKADYEKHKVYACEVTHQGLSSPVTKSFNRGEC | 92% | 94% |  |  |  | 
4 | MetMAb HC_20.8.26_A + MetMAb LC (IgG1) (protein) chain 1: EVQLVESGGGLVQPGGSLRLSCAASGYTFTSYWLHWVRKAPGKGLEWVGMIDPSNSDTRFNPEFKDRFTISADTSKNTAYLQMNSLRAEDTAVYYCATYRSYVTPLDYWGQGTLVTVSSASTKGPSVFPLAPSSKSTSGGTAALGCLVKDYFPEPVTVSWNSGALTSGVATGPAVLQSSGLYSLSSVVTVPSSSLGTQTYICNVNHKPSNTKVDKKVEPKSCDKTHTCPPCPAPELLGGPSVFLFPPKPKDTLMISRTPEVTCVVVDVSHEDPEVKFNWYVDGVEVHNAKTKPREEQYQSTYRVVSVLTVLHQDWLNGKEYKCKVSNKALPAPIEKTISKAKGQPREPQVSTLPPSREEMTKNQVSLMCLVYGFYPSDIAVEWESNGQPENNYKTTPPVLDSDGSFFLYSVLTVDKSRWQQGNVFSCSVMHEALHNHYTQKSLSLSPGK chain 2: RIQMTQSPSSLSASVGDRVTITCKSSQSLLYTSSQKNYLAWYQDKPGKAPKLLIYWASTRESGVPSRFSGSGSGTDFTLTISSLQPEDFATYYCQQYYAYPWTFGQGTKVEIKGQPKAAPSVTLFPPSSEELQANKATLVCYISDFYPGAVTVAWKADSSPVKAGVETTTPSKQSNNKYAAWSYLSLTPEQWKSHRSYSCQVTHEGSTVEKTVAPTEC |  |  | 33.3% | 58.6% | 0% | % AB (2x LC2) (incorrect assembly) [4]: 4.2%; % AB (2x LC2) (incorrect assembly) [5]: 20.9%; % AB (LC1/LC2) (correct IgG BsAb assembly) [7]: 95.8%; % AB (LC1/LC2) (correct IgG BsAb assembly) [8]: 79.1%; % AB (2x LC1) (incorrect assembly) [10]: 0%; % AB (2x LC1) (incorrect assembly) [11]: 0%
5 | MetMAb HC_20.8_A + MetMAb LC (IgG1) (protein) chain 1: EVQLVESGGGLVQPGGSLRLSCAASGYTFTSYWLHWVRKAPGKGLEWVGMIDPSNSDTRFNPEFKDRFTISADTSKNTAYLQMNSLRAEDTAVYYCATYRSYVTPLDYWGQGTLVTVSSASTKGPSVFPLAPSSKSTSGGTAALGCLVKDYFPEPVTVSWNSGALTSGVATGPAVLQSSGLYSLSSVVTVPSSSLGTQTYICNVNHKPSNTKVDKKVEPKSCDKTHTCPPCPAPELLGGPSVFLFPPKPKDTLMISRTPEVTCVVVDVSHEDPEVKFNWYVDGVEVHNAKTKPREEQYQSTYRVVSVLTVLHQDWLNGKEYKCKVSNKALPAPIEKTISKAKGQPREPQVSTLPPSREEMTKNQVSLVCLVYGFYPSDIAVEWESNGQPENNYKTTPPVLDSDGSFFLYSVLTVDKSRWQQGNVFSCSVMHEALHNHYTQKSLSLSPGK chain 2: RIQMTQSPSSLSASVGDRVTITCKSSQSLLYTSSQKNYLAWYQDKPGKAPKLLIYWASTRESGVPSRFSGSGSGTDFTLTISSLQPEDFATYYCQQYYAYPWTFGQGTKVEIKGQPKAAPSVTLFPPSSEELQANKATLVCYISDFYPGAVTVAWKADSSPVKAGVETTTPSKQSNNKYAAWSYLSLTPEQWKSHRSYSCQVTHEGSTVEKTVAPTEC |  |  | 24.4% | 75.6% | 0% | % AA Homodimer (incorrect assembly) [12]: 0%
6 | MetMAb HC_7.8.60_A + MetMAb LC (IgG4 HC backbone) (protein) chain 1: EVQLVESGGGLVQPGGSLRLSCAASGYTFTSYWLHWVRKAPGKGLEWVGMIDPSNSDTRFNPEFKDRFTISADTSKNTAYLQMNSLRAEDTAVYYCATYRSYVTPLDYWGQGTLVTVSSASTKGPSVFPLAPCSRSTSESTAALGCLVKDYFPEPVTVSWNSGALTSGVATGPAVLQSSGLYSLSSVVTVPSSSLGTKTYTCNVDHKPSNTKVDKRVESKYGPPCPPCPAPEAAGGPSVFLFPPKPKDTLMISRTPEVTCVVVDVSQEDPEVQFNWYVDGVEVHNAKTKPREEQFQSTYRVVSVLTVLHQDWLNGKEYKCKVSNKGLPSSIEKTISKAKGQPREPQVYTLPPSQEEMTDNQVSLTCLVKGFYPSDIAVEWESNGQPENNYKTTPPVLMSDGSFFLASRLTVDKSRWQEGNVFSCSVMHEALHNHYTQKSLSLSLG chain 2: RIQMTQSPSSLSASVGDRVTITCKSSQSLLYTSSQKNYLAWYQDKPGKAPKLLIYWASTRESGVPSRFSGSGSGTDFTLTISSLQPEDFATYYCQQYYAYPWTFGQGTKVEIKGQPKAAPSVTLFPPSSEELQANKATLVCYISDFYPGAVTVAWKADSSPVKAGVETTTPSKQSNNKYAAWSYLSLTPEQWKSHRSYSCQVTHEGSTVEKTVAPTEC |  |  |  |  |  | % AB (LC1/LC2) (correct IgG BsAb assembly) [13]: 100%; % AB (2x LC1) (incorrect assembly) [14]: 0%; % AB (2x LC2) (incorrect assembly) [15]: 0%; % AA Homodimer (incorrect assembly) [16]: 0%
